# Results from the supplement of paper PMC10567573.
# B1: YPEL3 (parent)
# chain: SKPKTFQAYLDDCHRRYSCAHCRA
# B2: RAB22A (parent)
# chain: FVEDSFDPNINPTIGASFMTKTVQ
# Variants of: B1
# Experiment: protein stability index of a GFP-peptide fusion (GPS, HEK-293T) (PSI 1-6); higher = more stable
# Conditions: c terminus: a fixed tail appended
# 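Also: lentivirally expressed fusions sorted by FACS into six bins by GFP to DsRed ratio, PSI derived from sequencing read proportions per bin multiplied by bin number.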
row,Variant,protein stability index
1,SKPKTFQAVLDDCHRRYSCAHCRA [Y9V],2.41
2,SKPKTFQQYLDDCHRRYSCAHCRA [A8Q],2.5
3,SKPKTFQAYLIDCHRRYSCAHCRA [D11I],2.92
4,SKPKTFQAYLDDCDRRYSCAHCRA [H14D],1.67
5,SKPKTFQAYLDDNHRRYSCAHCRA [C13N],2.27
6,SKPKTFQAYLSDCHRRYSCAHCRA [D11S],1.9
7,SKPKTFQAYLDDCHRRYSMAHCRA [C19M],1.63
8,SQPKTFQAYLDDCHRRYSCAHCRA [K2Q],2.31
9,SKPKTTQAYLDDCHRRYSCAHCRA [F6T],3.23
10,SKPKTFQAYLDSCHRRYSCAHCRA [D12S],2
11,SKPKTFQAYLDDCHRRHSCAHCRA [Y17H],2.07
12,SKPKTFQAYLDDCHRRYICAHCRA [S18I],2.37
13,SKPKTFQAYLDDHHRRYSCAHCRA [C13H],1.75
14,SKPKTFQAYIDDCHRRYSCAHCRA [L10I],2.41
15,SKPKTFQSYLDDCHRRYSCAHCRA [A8S],1.82
16,SKPKRFQAYLDDCHRRYSCAHCRA [T5R],2.85
17,SKPKTFQAHLDDCHRRYSCAHCRA [Y9H],1.88
18,SKWKTFQAYLDDCHRRYSCAHCRA [P3W],1.8
19,SKPKTFQAYLDDCHRRYSCAHCRI [A24I],2
20,SKPKTFQAYLDDCHTRYSCAHCRA [R15T],2.48
21,SKPKTQQAYLDDCHRRYSCAHCRA [F6Q],3.21
22,SFPKTFQAYLDDCHRRYSCAHCRA [K2F],1.88
23,SKPKTFQAYLDDSHRRYSCAHCRA [C13S],2.25
24,SKPSTFQAYLDDCHRRYSCAHCRA [K4S],2.5

# Variants of: B2
# Experiment: as above
# Conditions: c terminus: a fixed tail appended
row,Variant,protein stability index
1,AVEDSFDPNINPTIGASFMTKTVQ [F1A],4.1
2,CVEDSFDPNINPTIGASFMTKTVQ [F1C],3.75
3,DVEDSFDPNINPTIGASFMTKTVQ [F1D],4.45
4,EVEDSFDPNINPTIGASFMTKTVQ [F1E],4.66
5,GVEDSFDPNINPTIGASFMTKTVQ [F1G],4.4
6,HVEDSFDPNINPTIGASFMTKTVQ [F1H],4.25
7,IVEDSFDPNINPTIGASFMTKTVQ [F1I],3.72
8,KVEDSFDPNINPTIGASFMTKTVQ [F1K],4.2
9,LVEDSFDPNINPTIGASFMTKTVQ [F1L],3.51
10,MVEDSFDPNINPTIGASFMTKTVQ [F1M],3.61
11,NVEDSFDPNINPTIGASFMTKTVQ [F1N],4.44
12,PVEDSFDPNINPTIGASFMTKTVQ [F1P],4.42
13,QVEDSFDPNINPTIGASFMTKTVQ [F1Q],4.25
14,RVEDSFDPNINPTIGASFMTKTVQ [F1R],4.24
15,SVEDSFDPNINPTIGASFMTKTVQ [F1S],3.98
16,TVEDSFDPNINPTIGASFMTKTVQ [F1T],4.36
17,VVEDSFDPNINPTIGASFMTKTVQ [F1V],3.79
18,WVEDSFDPNINPTIGASFMTKTVQ [F1W],3.41
19,YVEDSFDPNINPTIGASFMTKTVQ [F1Y],2.91
20,FAEDSFDPNINPTIGASFMTKTVQ [V2A],3.54
21,FCEDSFDPNINPTIGASFMTKTVQ [V2C],3.14
22,FDEDSFDPNINPTIGASFMTKTVQ [V2D],4.03
23,FEEDSFDPNINPTIGASFMTKTVQ [V2E],3.95
24,FFEDSFDPNINPTIGASFMTKTVQ [V2F],2.89

row,Variant,protein stability index
1,FGEDSFDPNINPTIGASFMTKTVQ [V2G],3.77
2,FHEDSFDPNINPTIGASFMTKTVQ [V2H],3.61
3,FIEDSFDPNINPTIGASFMTKTVQ [V2I],2.81
4,FKEDSFDPNINPTIGASFMTKTVQ [V2K],3.69
5,FLEDSFDPNINPTIGASFMTKTVQ [V2L],3.29
6,FMEDSFDPNINPTIGASFMTKTVQ [V2M],3.62
7,FNEDSFDPNINPTIGASFMTKTVQ [V2N],3.62
8,FPEDSFDPNINPTIGASFMTKTVQ [V2P],4.33
9,FQEDSFDPNINPTIGASFMTKTVQ [V2Q],3.8
10,FREDSFDPNINPTIGASFMTKTVQ [V2R],3.48
11,FSEDSFDPNINPTIGASFMTKTVQ [V2S],3.99
12,FTEDSFDPNINPTIGASFMTKTVQ [V2T],3.68
13,FWEDSFDPNINPTIGASFMTKTVQ [V2W],2.51
14,FYEDSFDPNINPTIGASFMTKTVQ [V2Y],3.19
15,FVADSFDPNINPTIGASFMTKTVQ [E3A],1.93
16,FVCDSFDPNINPTIGASFMTKTVQ [E3C],1.59
17,FVDDSFDPNINPTIGASFMTKTVQ [E3D],2.49
18,FVFDSFDPNINPTIGASFMTKTVQ [E3F],2.57
19,FVGDSFDPNINPTIGASFMTKTVQ [E3G],1.49
20,FVHDSFDPNINPTIGASFMTKTVQ [E3H],2.26
21,FVIDSFDPNINPTIGASFMTKTVQ [E3I],1.88
22,FVKDSFDPNINPTIGASFMTKTVQ [E3K],1.88
23,FVLDSFDPNINPTIGASFMTKTVQ [E3L],1.78
24,FVMDSFDPNINPTIGASFMTKTVQ [E3M],1.84

row,Variant,protein stability index
1,FVNDSFDPNINPTIGASFMTKTVQ [E3N],1.96
2,FVPDSFDPNINPTIGASFMTKTVQ [E3P],2.95
3,FVQDSFDPNINPTIGASFMTKTVQ [E3Q],1.75
4,FVRDSFDPNINPTIGASFMTKTVQ [E3R],2.54
5,FVSDSFDPNINPTIGASFMTKTVQ [E3S],2.8
6,FVTDSFDPNINPTIGASFMTKTVQ [E3T],1.57
7,FVVDSFDPNINPTIGASFMTKTVQ [E3V],1.75
8,FVWDSFDPNINPTIGASFMTKTVQ [E3W],1.72
9,FVYDSFDPNINPTIGASFMTKTVQ [E3Y],1.75
10,FVEASFDPNINPTIGASFMTKTVQ [D4A],1.63
11,FVECSFDPNINPTIGASFMTKTVQ [D4C],1.66
12,FVEESFDPNINPTIGASFMTKTVQ [D4E],2.52
13,FVEFSFDPNINPTIGASFMTKTVQ [D4F],3.14
14,FVEGSFDPNINPTIGASFMTKTVQ [D4G],2.02
15,FVEHSFDPNINPTIGASFMTKTVQ [D4H],1.36
16,FVEISFDPNINPTIGASFMTKTVQ [D4I],3.06
17,FVEKSFDPNINPTIGASFMTKTVQ [D4K],1.52
18,FVELSFDPNINPTIGASFMTKTVQ [D4L],2.38
19,FVEMSFDPNINPTIGASFMTKTVQ [D4M],2.23
20,FVENSFDPNINPTIGASFMTKTVQ [D4N],2.23
21,FVEPSFDPNINPTIGASFMTKTVQ [D4P],1.78
22,FVEQSFDPNINPTIGASFMTKTVQ [D4Q],1.82
